Measured values as given in patent US20220332804A1 (CSL INNOVATION, published 2022).

Tests used:
[1] = molecular target: T1, human C2a (activated human C2) (human, UniProt P06681 244-752); experiment: SPR, HBS-EP, pH 7.3, 37 C
T1 construct: the whole entry is named here; also called huC2a
T1 sequence: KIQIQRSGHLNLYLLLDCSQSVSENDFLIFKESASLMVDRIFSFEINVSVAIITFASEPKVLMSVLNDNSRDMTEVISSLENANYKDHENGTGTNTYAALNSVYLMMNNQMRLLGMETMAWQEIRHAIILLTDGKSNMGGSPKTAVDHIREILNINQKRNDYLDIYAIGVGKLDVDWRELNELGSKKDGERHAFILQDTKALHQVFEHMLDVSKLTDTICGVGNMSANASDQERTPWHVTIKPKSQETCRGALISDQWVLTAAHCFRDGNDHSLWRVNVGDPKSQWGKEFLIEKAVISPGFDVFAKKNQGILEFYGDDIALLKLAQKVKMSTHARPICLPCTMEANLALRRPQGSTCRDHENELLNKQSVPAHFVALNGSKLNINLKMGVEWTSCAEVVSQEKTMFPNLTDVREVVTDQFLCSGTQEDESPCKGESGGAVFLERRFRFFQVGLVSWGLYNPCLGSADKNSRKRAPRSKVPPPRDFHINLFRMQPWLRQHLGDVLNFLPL
Description: (§1) Surface plasmon resonance (SPR, Biacore) was used for all binding affinity analyses. In brief, goat anti-human IgG was directly immobilised onto the carboxymethyl dextran surface of CM5 sensorchips to approximately 12,000 RU using standard NHS/EDC chemistry at pH 5. The immobilised antibody surface was pre-conditioned with ten injections of polyclonal human IgG (Privigen 60 s) prepared at 1 μg/mL. Ligands (anti-C2 mAbs) were captured at the beginning of each cycle as described below. An adjacent spot or flow cell in which only Polyclonal IgG was capture was used as a reference surface. The goat anti-human IgG Fc antibody surface was regenerate in 100 mM H3PO4, injected for 45 seconds at the end of each cycle. Experiments were performed at 37° C. and the flow rate of each experiment was kept constant at 30 μL/min.
(§2) Purified human C2 zymogen and human C2a were tested at concentrations ranging from 1.9 to 500 nM while human C2b was tested at concentrations ranging from 1.9 to 1000 nM. All experiments were performed in HBS-EP buffer supplemented with 0.1% BSA at 37° C. and pH 7.3. Each antibody was tested against human C2 zymogen and human C2a in duplicate and against C2b in quadruplicate. The flow rate was set to 30 μL/min. Each analyte concentration was tested in duplicate.

human C2b = molecular target: T2, human C2b (human, UniProt P06681 21-243); experiment: SPR, HBS-EP, pH 7.3, 37 C
T2 construct: the whole entry is named here
T2 sequence: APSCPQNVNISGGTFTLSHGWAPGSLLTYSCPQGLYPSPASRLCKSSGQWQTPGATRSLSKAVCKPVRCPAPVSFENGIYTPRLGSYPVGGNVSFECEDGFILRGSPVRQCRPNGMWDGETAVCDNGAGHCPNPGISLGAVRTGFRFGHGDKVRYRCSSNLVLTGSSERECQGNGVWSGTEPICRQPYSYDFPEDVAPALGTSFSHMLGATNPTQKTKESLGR
Description: as §1, §2

[2] = molecular target: T3, human complement C2 zymogen (human, UniProt P06681 21-752); experiment: SPR, human C2 zymogen analyte, HBS-EP, pH 7.3, 37 C
T3 construct: also called huC2; human C2
T3 sequence: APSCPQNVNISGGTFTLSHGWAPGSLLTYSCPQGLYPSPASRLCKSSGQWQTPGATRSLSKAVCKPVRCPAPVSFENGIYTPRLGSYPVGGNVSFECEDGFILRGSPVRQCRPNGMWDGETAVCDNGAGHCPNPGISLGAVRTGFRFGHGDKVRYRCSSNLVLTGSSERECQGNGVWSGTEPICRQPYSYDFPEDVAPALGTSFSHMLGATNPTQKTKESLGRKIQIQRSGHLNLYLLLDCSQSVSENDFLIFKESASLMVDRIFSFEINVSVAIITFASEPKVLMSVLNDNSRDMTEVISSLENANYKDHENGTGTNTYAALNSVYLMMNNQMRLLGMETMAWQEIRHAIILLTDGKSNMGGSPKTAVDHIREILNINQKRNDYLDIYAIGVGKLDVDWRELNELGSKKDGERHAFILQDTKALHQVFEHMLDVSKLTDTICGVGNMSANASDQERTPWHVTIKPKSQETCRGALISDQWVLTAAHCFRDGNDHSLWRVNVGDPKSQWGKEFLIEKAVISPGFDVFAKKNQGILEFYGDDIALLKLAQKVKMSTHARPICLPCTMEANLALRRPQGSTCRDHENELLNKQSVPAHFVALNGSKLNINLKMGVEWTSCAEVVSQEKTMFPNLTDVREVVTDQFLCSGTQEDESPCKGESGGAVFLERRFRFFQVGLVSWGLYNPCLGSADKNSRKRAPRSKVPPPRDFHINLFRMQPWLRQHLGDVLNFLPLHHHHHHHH
Description: as §1, §2

[3] = molecular target: T4, cynomolgus monkey FcRn/β2m (cynomolgus monkey, UniProt Q8SPV9 24-297; Q8SPW0 21-119, limits assumed); experiment: SPR, immobilised antibody, cyno FcRn/b2m analyte, pH 6.0; pH 6.0
T4 construct: injected in solution over immobilised antibody; also called Cyno FcRn/β2m
T4 sequence (Q8SPV9 24-297 limits assumed, chain 1 of 2): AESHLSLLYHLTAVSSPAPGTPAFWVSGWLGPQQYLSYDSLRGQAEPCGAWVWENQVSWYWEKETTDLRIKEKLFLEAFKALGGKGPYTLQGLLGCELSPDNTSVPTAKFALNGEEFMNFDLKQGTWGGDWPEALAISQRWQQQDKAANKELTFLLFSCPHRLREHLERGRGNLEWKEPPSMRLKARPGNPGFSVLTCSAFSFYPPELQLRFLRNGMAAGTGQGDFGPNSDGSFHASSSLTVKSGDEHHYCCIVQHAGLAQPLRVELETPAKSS
T4 sequence (Q8SPW0 21-119 limits assumed, chain 2 of 2): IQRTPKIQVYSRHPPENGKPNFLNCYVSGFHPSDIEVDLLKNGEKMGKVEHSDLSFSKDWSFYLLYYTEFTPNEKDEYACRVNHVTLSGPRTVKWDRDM
Description: Anti-C2 mAbs (1 μg/mL at pH 5) were immobilized on a carboxylmethyldextran (CM5) sensorchip surface using standard EDC/NHS chemistry. Human and Cyno FcRn/β2m (40 μM) were prepared in running buffer (10 mM HEPES, 150 mM NaCl, 10 mM MES adjusted to either pH 6 or pH 7.3) and injected on the immobilized anti-C2 surface at concentrations ranging from 0.078 to 40 μM, prepared in two-fold dilutions in running buffer. Association and dissociation phases were monitored for 180 and 600 seconds, respectively. […] Double referenced sensorgrams were fitted to either a 1:1 kinetic model (pH 6), including a term for mass transport limitation or to a 1:1 steady state model (pH 7.3) where responses at the end of the association phase were plotted against respective concentrations.
Binding to both human and cynomolgus monkey FcRn was tested using the SPR methods described above.

[4] = molecular target: T3, human complement C2 zymogen; experiment: SPR kinetics, captured antibody, analyte huC2 0 mM Ca^2+, pH 7.3
Description: as §1
(§3) Calcium concentrations ranged from zero (i.e. no added calcium, control) to near physiological levels (0.02, 0.2 and 2 mM CaCl₂.2H₂O, MW 147.02 Da).

[5] = molecular target: T3, human complement C2 zymogen; experiment: SPR steady state, captured antibody, analyte huC2 0 mM Ca^2+, pH 6.0
Description: as §1, §3

[6] = molecular target: T3, human complement C2 zymogen; experiment: SPR kinetics, captured antibody, analyte huC2 20 mM Ca^2+ (so in the source), pH 7.3
Description: as §1, §3

[7] = molecular target: T3, human complement C2 zymogen; experiment: SPR kinetics, captured antibody, analyte huC2 200 mM Ca^2+ (so in the source), pH 7.3
Description: as §1, §3

[8] = molecular target: T3, human complement C2 zymogen; experiment: SPR kinetics, captured antibody, analyte huC2 2000 mM Ca^2+ (so in the source), pH 7.3
Description: as §1, §3

[9] = molecular target: T3, human complement C2 zymogen; experiment: SPR steady state, captured antibody, analyte huC2 20 mM Ca^2+ (so in the source), pH 6.0
Description: as §1
(§4) Sensogram data was double-referenced against a reference anti-IgG surface (i.e. minus anti-C2 mAb) and blank buffer injections obtained within each experiment. The binding data was fit to 1:1 (kinetic or steady-state) model using local Rmax and null refraction index (RI=0) when appropriate. Buffers and solutions were filtered (0.22 μm) prior to use.
as §3

[10] = molecular target: T3, human complement C2 zymogen; experiment: SPR steady state, captured antibody, analyte huC2 200 mM Ca^2+ (so in the source), pH 6.0
Description: as §1, §4, §3

[11] = molecular target: T3, human complement C2 zymogen; experiment: SPR steady state, captured antibody, analyte huC2 2000 mM Ca^2+ (so in the source), pH 6.0
Description: as §1, §3

[12] = molecular target: T3, human complement C2 zymogen; experiment: SPR kinetics, captured antibody, analyte huC2 0 mM Ca^2+, pH 7.3; remark: listed apart in the source
Description: as §1, §4, §3

[13] = molecular target: T3, human complement C2 zymogen; experiment: SPR kinetics, captured antibody, analyte huC2 (so in the source), pH 7.3
Description: as §1, §4, §3

[14] = molecular target: T3, human complement C2 zymogen; experiment: SPR steady state, captured antibody, analyte huC2 0 mM Ca^2+, pH 6.0; remark: listed apart in the source
Description: as §1, §4, §3

[15] = molecular target: T3, human complement C2 zymogen; experiment: SPR kinetics, captured antibody, analyte huC2 20 mM Ca^2+ (so in the source), pH 7.3; remark: listed apart in the source
Description: as §1, §4, §3

[16] = molecular target: T3, human complement C2 zymogen; experiment: SPR kinetics, captured antibody, analyte huC2 200 mM Ca^2+ (so in the source), pH 7.3; remark: listed apart in the source
Description: as §1, §4, §3

[17] = molecular target: T3, human complement C2 zymogen; experiment: SPR kinetics, captured antibody, analyte huC2 2000 mM Ca^2+ (so in the source), pH 7.3; remark: listed apart in the source
Description: as §1, §4, §3

[18] = molecular target: T3, human complement C2 zymogen; experiment: SPR steady state, captured antibody, analyte huC2 20 mM Ca^2+ (so in the source), pH 6.0; remark: listed apart in the source
Description: as §1, §4, §3

[19] = molecular target: T3, human complement C2 zymogen; experiment: SPR steady state, captured antibody, analyte huC2 200 mM Ca^2+ (so in the source), pH 6.0; remark: listed apart in the source
Description: as §1, §4, §3

[20] = molecular target: T3, human complement C2 zymogen; experiment: SPR steady state, captured antibody, analyte huC2 2000 mM Ca^2+ (so in the source), pH 6.0; remark: listed apart in the source
Description: as §1, §4, §3

B1: RF16-226 (antibody, human IgG4 S228P, lambda)
heavy: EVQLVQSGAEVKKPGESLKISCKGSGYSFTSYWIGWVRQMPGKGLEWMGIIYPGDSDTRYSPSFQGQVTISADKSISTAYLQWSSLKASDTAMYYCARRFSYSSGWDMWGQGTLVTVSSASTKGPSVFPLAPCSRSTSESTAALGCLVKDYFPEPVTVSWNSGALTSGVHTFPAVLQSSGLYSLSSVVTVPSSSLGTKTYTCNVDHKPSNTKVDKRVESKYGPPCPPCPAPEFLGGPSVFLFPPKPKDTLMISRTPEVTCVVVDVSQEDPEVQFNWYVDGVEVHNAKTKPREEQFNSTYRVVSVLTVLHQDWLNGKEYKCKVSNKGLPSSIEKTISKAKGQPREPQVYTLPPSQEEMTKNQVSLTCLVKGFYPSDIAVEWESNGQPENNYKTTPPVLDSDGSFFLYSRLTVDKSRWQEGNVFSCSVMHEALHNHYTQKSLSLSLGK
light: SYELTQPPSVSVSPGQTARITCSGDALTSKYVAWYQQKSGLAPLLVIYEDTRRPSGIPAKFSGSSSGSVATLTISGAHGDDEADYYCYSTDASGHQRVFGGGTKLTVLSQPKAAPSVTLFPPSSEELQANKATLVCLISDFYPGAVTVAWKADGSPVKAGVETTKPSKQSNNKYAASSYLSLTPEQWKSHRSYSCQVTHEGSTVEKTVAPTECS
notes: Human antibody from a phage display library, unmodified Fc; also called WT
- binding result [1]: no binding (tested: C2a tested up to 500 nM)
- binding result (human C2b): no binding (tested: C2b tested up to 1000 nM)
- Kd [2]: 8 nM
- Kd [3]: 2100 nM
- Kd [4]: 9.2 nM
- koff [4]: 0.00499 s⁻¹
- kon [4]: 546000 M⁻¹ s⁻¹
- Kd [5]: 93.6 nM
- Kd [6]: 10.2 nM
- koff [6]: 0.0057 s⁻¹
- kon [6]: 569000 M⁻¹ s⁻¹
- Kd [7]: 9.3 nM
- koff [7]: 0.0059 s⁻¹
- kon [7]: 631000 M⁻¹ s⁻¹
- Kd [8]: 11.1 nM
- koff [8]: 0.0062 s⁻¹
- kon [8]: 561000 M⁻¹ s⁻¹
- Kd [9]: 87.4 nM
- Kd [10]: 94.2 nM
- Kd [11]: 111 nM

B2: RF16-226 YTE (Fc mutations M252Y, S254T, T256E) (antibody, human IgG4 S228P, lambda)
heavy: EVQLVQSGAEVKKPGESLKISCKGSGYSFTSYWIGWVRQMPGKGLEWMGIIYPGDSDTRYSPSFQGQVTISADKSISTAYLQWSSLKASDTAMYYCARRFSYSSGWDMWGQGTLVTVSSASTKGPSVFPLAPCSRSTSESTAALGCLVKDYFPEPVTVSWNSGALTSGVHTFPAVLQSSGLYSLSSVVTVPSSSLGTKTYTCNVDHKPSNTKVDKRVESKYGPPCPPCPAPEFLGGPSVFLFPPKPKDTLYITREPEVTCVVVDVSQEDPEVQFNWYVDGVEVHNAKTKPREEQFNSTYRVVSVLTVLHQDWLNGKEYKCKVSNKGLPSSIEKTISKAKGQPREPQVYTLPPSQEEMTKNQVSLTCLVKGFYPSDIAVEWESNGQPENNYKTTPPVLDSDGSFFLYSRLTVDKSRWQEGNVFSCSVMHEALHNHYTQKSLSLSLGK
light: SYELTQPPSVSVSPGQTARITCSGDALTSKYVAWYQQKSGLAPLLVIYEDTRRPSGIPAKFSGSSSGSVATLTISGAHGDDEADYYCYSTDASGHQRVFGGGTKLTVLSQPKAAPSVTLFPPSSEELQANKATLVCLISDFYPGAVTVAWKADGSPVKAGVETTKPSKQSNNKYAASSYLSLTPEQWKSHRSYSCQVTHEGSTVEKTVAPTECS
- Kd [3]: 450 nM
- Kd [12]: 8.5 nM
- koff [12]: 0.00495 s⁻¹
- kon [12]: 584000 M⁻¹ s⁻¹
- kon [13]: 601000 M⁻¹ s⁻¹
- Kd [14]: 74.3 nM
- Kd [15]: 7.9 nM
- koff [15]: 0.00521 s⁻¹
- kon [15]: 657000 M⁻¹ s⁻¹
- Kd [16]: 8.3 nM
- koff [16]: 0.00543 s⁻¹
- kon [16]: 653000 M⁻¹ s⁻¹
- Kd [17]: 9.9 nM
- koff [17]: 0.00592 s⁻¹
- Kd [18]: 71 nM
- Kd [19]: 74.6 nM
- Kd [20]: 92.8 nM
